Patent US20080095772A1 (Chugai, published 2008)
Numbering of substitutions follows the chain as printed. Where two headings read alike, the source gives them in different places. Values belong to the binder of their own block, whether it stands above or below them.

Assays:
human PTHrP (1-34) [1] = target: T1, human PTHrP (1-34) (human); assay: ELISA on plate-coated human PTHrP (1-34) (1 µg/ml); bound antibody detected with alkaline phosphatase-conjugated goat anti-human IgG; O.D. 405/620
T1 construct: Synthetic peptide (Peninsula; Peptide Research Institute), coated on ELISA plates at 1 µg/ml or used in solid phase RIA; also called human parathyroid hormone related protein (1-34)
Protocol: (§1) An ELISA plate for determining antigen binding ability was prepared as follows. Each of the wells of a 96-well plate for ELISA (Maxisorp, NUNC) was coated with 100 μl of a coating buffer supplemented with 1 μg/ml of human PTHrP (1-34) and then blocked with 200 μl of a dilution buffer. Thereafter, into each of the wells, was added a culture supernatant of the COS-7 cells in which the hybrid antibody or humanized antibody was expressed or a solution of the purified hybrid antibody or the purified humanized antibody in stepwise dilution. After incubating at room temperature and washing with PBS-Tween20, 100 μl of alkaline phosphatase-conjugated goat anti-human IgG antibody (TAGO) was added to each of the wells. […] The solution was measured for absorbance at 405 nm using Microplate Reader (Bio Rad).

human PTHrP (1-34) [2] = target: T1, human PTHrP (1-34); assay: as above; remark: listed apart in the source
Protocol: as §1

human PTHrP (1-34) [3] = target: T1, human PTHrP (1-34); assay: as above; remark: listed apart in the source
Protocol: as §1

PTHrP (1-34+Cys) [4] = target: T2, PTHrP (1-34+Cys) (human, C-terminal Cys coupled to sensor tip CM5 through PDEA (thiol coupling)); assay: BIACORE (SPR), PTHrP (1-34+C) immobilised on CM5 through the C-terminal Cys, antibody as analyte
Protocol: (§2) In this experiment, kinetic analysis of the antigen-antibody interaction using BIACORE was conducted. PTHrP(1-34+Cys) was used as an antigen and adsorbed onto the sensor tip specifically for C-terminals. Purified antibodies of various concentrations were used as an analyte. From the sensorgram obtained, kinetics parameters (binding rate constant “kass” and dissociation rate constant “kdiss”) were calculated.
(§3) As a running buffer, HBS (10 mM HEPES, pH 7.4; 0.15 M NaCl; 3.4 mM EDTA; 0.005% Surfactant P20) at a flow rate of 5 μl/min. was employed. The carboxyl groups of carboxymethyldextran on the sensor tip CM5 were activated by an injection of 100 μl of 0.05M N-hydroxysuccinimide (NHS)/0.2M N-ethyl-N′-(3-dimethylaminopropyl)carbodiimide hydrochloride (EDC) and an injection of 100 μl of 80 mM 2-(2-pyridinyldithio)ethanamine (PDEA)/0.1M borate buffer (pH 8.5), and an additional injection of 10 μl of 5 μg/ml PTHrP (1-34+C)/10 mM sodium acetate buffer (pH 5.0) to adsorbe onto the C-terminals of PTHrP (1-34+C) specifically for Cys residues. Subsequently, an injection of 100 μl of 50 mM (L)-cystein/1M NaCl/0.1M sodium formate buffer (pH 4.3) was conducted to block excessively activated groups. Subsequently, an injection of 10 μl of 0.1M glycine-HCl buffer (pH 2.5) and 10 μl of 10 mM HCl was conducted to wash the substances having non-covalent bonding.
(§4) The date file of interest was read and a comparison of the reaction patterns was conducted by overlaying the reaction regions of interest (FIGS. 20-24). […] Further, kinetic analysis of the interaction was conducted using an analysis software specifically designed for BIACORE “BIAevaluation 2.1” (Pharmacia) which is capable of calculating the kinetics parameters (binding rate constant “kass” and dissociation rate constant “kdiss”) by curve cutting (Tables 4 and 5).

human PTHrP (1-34) [5] = target: T1, human PTHrP (1-34); assay: ELISA on plate-coated human PTHrP (1-34) (1 µg/ml); bound antibody detected with alkaline phosphatase-conjugated goat anti-human IgG; O.D. 405/620; remark: listed apart in the source
Protocol: as §1

human PTHrP (1-34) [6] = target: T1, human PTHrP (1-34); assay: as above; remark: listed apart in the source
Protocol: as §1

human PTHrP (1-34) [7] = target: T1, human PTHrP (1-34); assay: as above; remark: listed apart in the source
Protocol: as §1

human PTHrP (1-34) [8] = target: T1, human PTHrP (1-34); assay: as above; remark: listed apart in the source
Protocol: as §1

human PTHrP (1-34) [9] = target: T1, human PTHrP (1-34); assay: as above; remark: listed apart in the source
Protocol: An ELISA plate for the determination of antigen binding ability was prepared as follows. Each of the wells of a 96-well plate for ELISA was coated with 100 μl of a solution comprising human PTHrP (1-34) (Peptide Research Institute) prepared in a coating buffer of a concentration of 1 μg/ml and then blocked with 200 μl of a dilution buffer. […] After incubating at room temperature and washing with PBS-Tween20, each well was added with 100 μl of a solution of alkaline phosphatase-conjugated goat anti-human IgG antibodies (TAGO). After incubating at room temperature and washing with PBS-Tween20, each well was added with 1 mg/ml of a substrate solution (“Sigma104”, p-nitrophenylphosphoric acid, SIGMA). The solution was measured for absorbance at −405 nm using Microplate Reader (Bio Rad).

PTHrP (1-34+Cys) [10] = target: T2, PTHrP (1-34+Cys); assay: BIACORE (SPR), PTHrP (1-34+C) immobilised on CM5 through the C-terminal Cys, antibody as analyte; remark: listed apart in the source
Protocol: as §2, §3, §4

human PTHrP (1-34) [11] = target: T1, human PTHrP (1-34); assay: solid phase RIA of hybridoma supernatants

- binding result (human PTHrP (1-34) [6]): no binding (tested: about 380 ng/ml)
B7: hH / hLf (antibody, V domains shown)
VH: QVQLVESGGGVVQPGRSLRLSCAASGFTFSSYGMSWVRQAPGKGLEWVATISSGGSYTYYPDSVKGRFTISRDNSKNTLYLQMNSLRAEDTAVYYCARQTTMTYFAYWGQGTLVTVSS
VL: QLVLTQSPSASASLGASVKLTCTLSSQHSTYTIEWHQQQPEKGPRYLMKLKQDGSHSTGDGIPDRFSGSSSGAERYLTISSLQPEDEADYICGVGDTIKEQFVYVFGGGTKLTVL
notes: copies: 2 + 2

- binding result (human PTHrP (1-34) [3]): no binding (tested: about 1650 ng/ml)
B8: hH / hLn (antibody, V domains shown)
VH: B7 VH
VL: B7 VL with H36Y, L47V, P84S, I91Y
notes: copies: 2 + 2

- binding result (human PTHrP (1-34) [2]): no binding (tested: about 370 ng/ml)
B10: hH / hLb (antibody, V domains shown)
VH: B7 VH
VL: B7 VL with G43P, K49D, P84S, I91Y
notes: copies: 2 + 2

- binding result (human PTHrP (1-34) [2]): no binding (tested: about 510 ng/ml)
B12: hH / hLd (antibody, V domains shown)
VH: B7 VH
VL: B7 VL with P84S
notes: copies: 2 + 2

- binding result (human PTHrP (1-34) [2]): no binding (tested: about 460 ng/ml)
B14: hH / hLc (antibody, V domains shown)
VH: B7 VH
VL: B7 VL with I91Y
notes: copies: 2 + 2

- binding result (human PTHrP (1-34) [5]): no binding (tested: about 340 ng/ml)
B16: human FR1,2/mouse FR3,4 hybrid antibody (L chain h/mMBC1L(λ), humanized H chain version a) (antibody, V domains shown)
VH: B7 VH
VL: QLVLTQSPSASASLGASVKLTCTLSSQHSTYTIEWHQQQPEKGPRYLMKLKQDGSHSTGDGIPDRFSGSSSGADRYLSISNIQPEDEAMYICGVGDTIKEQFVYVFGGGTKVTVLG
notes: Human Cγ1 and human Cλ C regions; Expressed in COS-7; also called h/mMBC1Ld(λ)

- binding result (human PTHrP (1-34) [1]): binds
B17: humanized #23-57-137-1 antibody, H chain version a, L chain version t (antibody, V domains shown)
VH: B7 VH
VL: B16 VL with H36Y, L47V, K49D, D74E, S78T, N81S, I82L, P84S, M89D, V112L
notes: Human Cγ1 and human Cλ C regions; Expressed in COS-7

- binding result (human PTHrP (1-34) [8]): binds
B18: antibody comprising the humanized H chain version "a" and the chimeric L chain (antibody, V domains shown)
VH: B7 VH
VL: B16 VL with P8S, A12F, V18A, H36Y, E41L, G43P, R45K, L47V, K49D
notes: Human Cγ1 H chain C region

- binding result (human PTHrP (1-34) [1]): binds
B19: humanized #23-57-137-1 antibody, H chain version a, L chain version r (antibody, V domains shown)
VH: B7 VH
VL: B16 VL with H36Y, K49D, D74E, S78T, N81S, I82L, P84S, M89D, V112L

- binding result (human PTHrP (1-34) [9]): binds
B20: chimeric #23-57-137-1 antibody with human κ L chain C region (antibody, V domains shown)
VH: EVQLVESGGDLVKPGGSLKLSCAASGFTFSSYGMSWIRQTPDKRLEWVATISSGGSYTYYPDSVKGRFTISRDNAKNTLYLQMSSLKSEDTAMFYCARQTTMTYFAYWGQGTLVTVSA
VL: B16 VL with P8S, A12F, V18A, H36Y, E41L, G43P, R45K, L47V, K49D
notes: Mouse V regions on a human Cγ1 H chain C region and a human Cκ L chain C region (from HEF-PM1k-gk); also called chimeric antibody (κ); MBC1HcDNA + MBC1L(κ)/neo

- Kd (PTHrP (1-34+Cys) [10]): 0.102 nM
- koff (PTHrP (1-34+Cys) [10]): 7.38e-05 s⁻¹
- kon (PTHrP (1-34+Cys) [10]): 723000 M⁻¹ s⁻¹
- binding result (human PTHrP (1-34) [11]): binds
B21: mouse monoclonal antibody #23-57-137-1 (antibody, V domains shown)
VH: B20 VH
VL: B16 VL with P8S, A12F, V18A, H36Y, E41L, G43P, R45K, L47V, K49D
notes: Whole mouse antibody with a mouse λ L chain; The H chain cDNA was amplified with the MHC-G1 primer; also called MBC

- binding result (human PTHrP (1-34) [7]): binds
- Kd (PTHrP (1-34+Cys) [4]): 0.134 nM
- koff (PTHrP (1-34+Cys) [4]): 0.000166 s⁻¹
- kon (PTHrP (1-34+Cys) [4]): 1.24e+06 M⁻¹ s⁻¹
B22: chimeric #23-57-137-1 antibody with human λ L chain C region (antibody, V domains shown)
VH: B20 VH
VL: B16 VL with P8S, A12F, V18A, H36Y, E41L, G43P, R45K, L47V, K49D
notes: It was expressed in COS-7 for ELISA and in CHO for BIACORE; also called chMBC; chH-chλ

- binding result (human PTHrP (1-34) [7]): no binding (tested: about 250 ng/ml)
B23: mouse FR1/human FR2/mouse FR3,4 hybrid antibody (L chain mhmMBC1L(λ), humanized H chain version a) (antibody, V domains shown)
VH: B7 VH
VL: B16 VL with P8S, A12F, V18A
notes: as for B17

Continued, binder first:

B1: humanized #23-57-137-1 antibody, H chain version a, L chain version s (antibody, V domains shown)
VH: B7 VH
VL: QLVLTQSPSASASLGASVKLTCTLSSQHSTYTIEWYQQQPEKGPKYVMDLKQDGSHSTGDGIPDRFSGSSSGAERYLTISSLQSEDEADYICGVGDTIKEQFVYVFGGGTKLTVLG
- binding result (human PTHrP (1-34) [1]): binds

B2: hH / hLa (antibody, V domains shown)
VH: B7 VH
VL: B7 VL with P84S, I91Y
notes: copies: 2 + 2
- binding result (human PTHrP (1-34) [2]): no binding (tested: about 390 ng/ml)

B3: humanized #23-57-137-1 antibody, H chain version a, L chain version m (antibody, V domains shown)
VH: B7 VH
VL: B1 VL with K45R, V47L, I91Y
notes: Human Cγ1 and human Cλ C regions; Expressed in COS-7 for ELISA and in CHO for BIACORE; also called hMBCm
- binding result (human PTHrP (1-34) [3]): binds
- Kd (PTHrP (1-34+Cys) [4]): 0.358 nM
- koff (PTHrP (1-34+Cys) [4]): 0.000316 s⁻¹
- kon (PTHrP (1-34+Cys) [4]): 883000 M⁻¹ s⁻¹

B4: mouse FR1,2/human FR3,4 hybrid antibody (L chain m/hMBC1Ldλ, humanized H chain version a) (antibody, V domains shown)
VH: B7 VH
VL: B1 VL with P8S, A12F, V18A, E41L, G43P
notes: as for B17
- binding result (human PTHrP (1-34) [5]): binds

B5: mouse FR1,2/human FR3,4 hybrid antibody (L chain m/hMBC1Laλ, humanized H chain version a) (antibody, V domains shown)
VH: B7 VH
VL: B1 VL with P8S, A12F, V18A, E41L, G43P, I91Y
notes: as for B17
- binding result (human PTHrP (1-34) [5]): binds

B6: humanized #23-57-137-1 antibody, H chain version a, L chain version q (antibody, V domains shown)
VH: B7 VH
VL: B1 VL with V47L
notes: Human Cγ1 and human Cλ C regions; Expressed in COS-7 for ELISA and in CHO for BIACORE; also called hMBCq
- binding result (human PTHrP (1-34) [1]): binds
- Kd (PTHrP (1-34+Cys) [4]): 0.225 nM
- koff (PTHrP (1-34+Cys) [4]): 0.000232 s⁻¹
- kon (PTHrP (1-34+Cys) [4]): 1.03e+06 M⁻¹ s⁻¹

B9: humanized #23-57-137-1 antibody, H chain version a, L chain version j (antibody, V domains shown)
VH: B7 VH
VL: B1 VL with V47L, I91Y
notes: as for B17
- binding result (human PTHrP (1-34) [6]): binds

B11: humanized #23-57-137-1 antibody, H chain version a, L chain version o (antibody, V domains shown)
VH: B7 VH
VL: B1 VL with K45R, I91Y
notes: as for B17
- binding result (human PTHrP (1-34) [3]): binds

B13: human FR1/mouse FR2,3,4 hybrid antibody (L chain hmmMBC1L(λ), humanized H chain version a) (antibody, V domains shown)
VH: B7 VH
VL: B16 VL with H36Y, E41L, G43P, R45K, L47V, K49D
notes: as for B17
- binding result (human PTHrP (1-34) [7]): binds

B15: humanized #23-57-137-1 antibody, H chain version a, L chain version l (antibody, V domains shown)
VH: B7 VH
VL: B1 VL with I91Y
notes: as for B17
- binding result (human PTHrP (1-34) [3]): binds
